Experimental data reported in publication PMC12276895 (2025).

B1: nTrimer5 homotrimeric miniprotein (designed binder)
chain: SPVKRFVREVLEEAEEAYEKGDRRQFEELLWLAEWAARDANDEELEEEIREFEKEVKGSGMTRLEQLLAQGVDPFEVLREKIEKLKEIWKKYEEAKGEEKERYRDELLKLMMEVLELMVELLSRR
B2: nTrimer1 homotrimeric miniprotein (cb3-GSG-Trimer1) (designed binder)
chain: SPVKRFVREVLEEAEEAYEKGDRRQFEELLWLAEWAARDANDEELEEEIREFEKEVKGSGSEALEELEKALRELKKSTDELERSTEELEKNPSEDALVENNRLIVENNKIIVEVLRIIAKVLK
B3: nTrimer2 homotrimeric miniprotein (designed binder)
chain: SPVKRFVREVLEEAEEAYEKGDRRQFEELLWLAEWAARDANDEELEEEIREFEKEVKGSGKRIDEIESKLKHLEEFTTHLIKLMETMLELLKLVSDGKSDSEEYKELLEKAEEYLKQATEAAKKI

Each binder was assayed against prefusion biotinylated MERS-CoV EMC/2012 S ectodomain trimer (MERS-CoV EMC/2012, UniProt K9N5Q8 18-1296) (assay: SPR).

Q: How did the Kd turn out when B1 was run?
A: 32 pM

Q: Which Kd does the source give for B2 here?
A: 21 pM

Q: B3 was tested. Which Kd did it give?
A: 27 pM
